Source: patent US20250270315A1 (ELPISCIENCE SUZHOU BIOPHARMA, published 2025)

T1: C57BL/6 mouse SIRPα ECD recombinant protein (6×His tagged) (C57BL/6 mouse, UniProt P97797 32-373)
T1 construct: extracellular domain; Bought from Biointron; not shown: 6×His tag
T1 sequence (looked up): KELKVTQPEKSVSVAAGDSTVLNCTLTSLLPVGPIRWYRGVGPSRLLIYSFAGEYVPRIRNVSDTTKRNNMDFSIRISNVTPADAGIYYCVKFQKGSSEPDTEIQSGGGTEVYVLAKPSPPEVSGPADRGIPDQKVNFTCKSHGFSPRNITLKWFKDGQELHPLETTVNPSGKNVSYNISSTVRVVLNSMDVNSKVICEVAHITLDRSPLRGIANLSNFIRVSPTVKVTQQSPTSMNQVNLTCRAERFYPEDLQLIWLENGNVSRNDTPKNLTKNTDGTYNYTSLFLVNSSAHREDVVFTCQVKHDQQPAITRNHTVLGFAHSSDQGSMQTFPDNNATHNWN


Tests used:
[1] = molecular target: T2, human SIRPα v2 ECD recombinant protein (tag not given) (human); experiment: competitive ELISA, mFc-CD47 ECD on coated SIRPα v2 ECD
T2 construct: extracellular domain; also called ELISA microplate coated human SIRPα v2 ECD
Protocol: (§1) Competitive ELISA assay was used to determine whether the purified chimeric antibodies can block CD47 and SIRPα interaction. Briefly, antibody and mFc tagged human CD47 ECD recombinant protein were co-incubated with ELISA microplate coated human SIRPα v1 ECD (FIGS. 6A and 6B) or human SIRPα v2 ECD (FIGS. 7A and 7B) recombinant protein. After washing, HRP labeled anti-mouse Fc 2nd antibody (Sigma) was added and incubated at 37° C. for 1 hour. Then, 100 μl/well of TMB solution (Biotechnology) was added. After incubation for 15 minutes at room temperature, the reaction was stopped by the addition of 50 μl of 1N HCl. OD 450 nm was read. Blocking ratio was determined by blockade of human CD47 ECD recombinant protein binding to ELISA microplate coated human SIRPα ECD recombinant protein. Other than 005, all antibodies as tested can block interaction between human CD47 and different human SIRPα variants.

[2] = molecular target: T3, human SIRPβ ECD recombinant protein (6×His tagged) (human, UniProt O00241 30-371); experiment: ELISA, hSIRPβ ECD
T3 construct: extracellular domain; Bought from Sino Biological; also called hSIRPβ ECD; not shown: 6×His tag
Source text: (§2) Binding activity of the purified chimeric antibodies against SIRPβ and SIRPBI was detected by ELISA assay using recombinant proteins of human SIRPβ ECD (FIGS. 3A and 3B), human SIRPBI ECD (FIGS. 3D and 3E) and FACS assay using CHOK 1 cells stably expressing human SIRPB (FIG. 3C).

[3] = molecular target: T4, human SIRPγ stably expressed on 293F cells (human, UniProt Q9P1W8 29-387); experiment: FACS, 293F-human SIRPγ cells
T4 construct: whole, on cells

[4] = molecular target: T5, human SIRPβL ECD recombinant protein (6×His tagged) (human, UniProt Q5TFQ8 30-371); experiment: ELISA, hSIRPβI ECD
T5 construct: given variously as SIRPBL, SIRPBI and SIRPβI; Bought from Biointron; also called human SIRPBL ECD; human SIRPBI ECD
Source text: as §2

[5] = molecular target: T6, full length human SIRPα v1 stably expressed on CHOK1 or 293F cells (human, UniProt P78324 31-504); experiment: FACS, CHOK1-hSIRPα v1 cells
T6 construct: whole, on cells; also called CHOK1-human SIRPα v1; CHOK1-hSIRPα v1

[6] = molecular target: T7, human SIRPα v1 ECD recombinant protein (tag not given) (human, UniProt P78324 31-373); experiment: competitive ELISA, mFc-CD47 ECD on coated SIRPα v1 ECD
T7 construct: extracellular domain; also called biotin labeled soluble human SIRPα v1 ECD recombinant protein; ELISA microplate coated human SIRPα v1 ECD
Protocol: as §1

[7] = molecular target: full length human SIRPα v1 with a small beta-gal fragment (ED) fused to its C-terminal, expressed in K562 … (human, UniProt P78324 31-504); experiment: cell-based or functional assay
[8] = molecular target: T1, C57BL/6 mouse SIRPα ECD recombinant …; experiment: ELISA, recombinant C57BL/6 mouse SIRPα ECD
Source text: Species cross reactivity of purified chimeric antibodies was detected by ELISA assay using recombinant protein of C57BL/6 mouse SIRPα ECD (FIG. 5A) and FACS assay using CHOK 1 cells stably expressing cyno SIRPα (FIGS. 5B and 5C). All antibodies as tested bind to cyno SIRPα at different levels but have no species cross reactivity against C57BL/6 mouse SIRPα.

[9] = molecular target: Human SIRPα v1 (antigen of the Octet and Biacore affinity measurements) (human, UniProt P78324 31-370, limits assumed); experiment: BLI (Octet), 1:1 binding model
Protocol: The purified chimeric antibodies were characterized for binding affinity against human SIRPα v1, human SIRPα v2 using Bio-Layer Interferometry technology (Octet system). The association and dissociation curves were fit with 1:1 binding model, and the Ka/Kd/KD values for each antibody were calculated.

[10] = molecular target: T8, mFc tagged human SIRPα v1 ECD recombinant protein (human, UniProt P78324 31-373); experiment: competitive ELISA binning, mFc-SIRPα v1 ECD; competitor 042c
T8 construct: extracellular domain; Bought from Biointron; not shown: mouse IgG Fc (mFc) tag
Protocol: (§3) Competitive ELISA assay was used for epitope binning of purified chimeric antibodies. Briefly excessive competitor antibody and mFc tagged human SIRPα v1 ECD recombinant protein were co-incubated with ELISA microplate coated antibody. After washing, HRP labeled anti-mouse Fc 2nd antibody (Sigma) was added and incubated at 37° C. for 1 hour. Then, 100 μl/well of TMB solution (Biotechnology) was added. After incubation for 15 minutes at room temperature, the reaction was stopped by the addition of 50 μl of 1N HCl. OD 450 nm was read. Competition ratio was calculated. The antibodies that can compete each other for binding to SIRPα may have related binding epitopes.

[11] = molecular target: T8, mFc tagged human SIRPα v1 ECD …; experiment: competitive ELISA binning, mFc-SIRPα v1 ECD; competitor 025c
Protocol: as §3

[12] = molecular target: T6, full length human SIRPα v1 stably …; experiment: competitive FACS, mFc-CD47 ECD on CHOK1-human SIRPα v1 cells
Protocol: Competitive FACS assay was also set up to further compare the blocking activity of the humanized antibodies and reference antibodies. Briefly antibody and mFc tagged human CD47 ECD recombinant protein were co-incubated with CHOK1 cells stably expressing human SIRPα v1 (FIG. 16A) or human SIRPα v2 (FIG. 16B). After washing, dye labeled anti-mouse Fc 2nd antibody (Sigma) was added and incubated at 37° C. for 1 hour. Fluorescence intensity was detected. Blocking ratio was determined by blockade of human CD47 ECD recombinant protein binding to SIRPα expressed CHOK1 cells. […] In particular, HEFLB doesn't work at all for human SIRPα v2.

[13] = molecular target: T9, human SIRPβ stably expressed on CHOK1 cells (human, UniProt O00241 30-398); experiment: FACS, CHOK1-hSIRPβ cells
T9 construct: whole, on cells; also called CHOK1-human SIRPB; CHOK1-hSIRPβ
Source text: as §2

[14] = molecular target: T8, mFc tagged human SIRPα v1 ECD …; experiment: competitive ELISA binning, mFc-SIRPα v1 ECD; competitor hu1H9G4
Protocol: as §3

[15] = molecular target: T10, cyno SIRPγ ECD recombinant protein (cyno); experiment: ELISA, cyno SIRPγ ECD
T10 construct: extracellular domain

T6 sequence (P78324 31-504): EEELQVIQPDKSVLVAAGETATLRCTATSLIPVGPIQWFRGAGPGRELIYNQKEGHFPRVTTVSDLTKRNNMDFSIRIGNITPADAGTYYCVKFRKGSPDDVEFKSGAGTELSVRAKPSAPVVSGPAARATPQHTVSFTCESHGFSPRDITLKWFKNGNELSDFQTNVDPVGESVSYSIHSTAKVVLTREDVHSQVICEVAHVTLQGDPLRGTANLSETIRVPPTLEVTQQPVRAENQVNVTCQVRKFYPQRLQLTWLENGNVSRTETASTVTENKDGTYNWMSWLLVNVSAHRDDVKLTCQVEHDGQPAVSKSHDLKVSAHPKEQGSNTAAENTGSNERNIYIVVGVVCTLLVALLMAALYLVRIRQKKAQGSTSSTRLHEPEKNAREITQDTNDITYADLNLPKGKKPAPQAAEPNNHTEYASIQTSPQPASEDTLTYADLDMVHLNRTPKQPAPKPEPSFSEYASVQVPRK
full length human SIRPα v1 with a small beta-gal fragment (ED) fused to its C-terminal, expressed in K562 …, sequence (P78324 31-504): as above
T7 sequence (P78324 31-373): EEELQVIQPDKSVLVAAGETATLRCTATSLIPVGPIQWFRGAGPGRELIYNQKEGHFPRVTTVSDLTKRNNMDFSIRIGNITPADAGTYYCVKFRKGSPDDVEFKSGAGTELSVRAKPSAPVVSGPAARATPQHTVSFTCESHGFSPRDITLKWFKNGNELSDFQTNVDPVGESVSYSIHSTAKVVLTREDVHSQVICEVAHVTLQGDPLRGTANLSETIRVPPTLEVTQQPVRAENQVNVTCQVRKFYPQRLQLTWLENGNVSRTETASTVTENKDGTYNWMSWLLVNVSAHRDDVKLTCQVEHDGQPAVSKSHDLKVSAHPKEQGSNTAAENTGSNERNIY
T8 sequence (P78324 31-373): as above
Human SIRPα v1 (antigen of the Octet and Biacore affinity measurements), sequence (P78324 31-370 limits assumed): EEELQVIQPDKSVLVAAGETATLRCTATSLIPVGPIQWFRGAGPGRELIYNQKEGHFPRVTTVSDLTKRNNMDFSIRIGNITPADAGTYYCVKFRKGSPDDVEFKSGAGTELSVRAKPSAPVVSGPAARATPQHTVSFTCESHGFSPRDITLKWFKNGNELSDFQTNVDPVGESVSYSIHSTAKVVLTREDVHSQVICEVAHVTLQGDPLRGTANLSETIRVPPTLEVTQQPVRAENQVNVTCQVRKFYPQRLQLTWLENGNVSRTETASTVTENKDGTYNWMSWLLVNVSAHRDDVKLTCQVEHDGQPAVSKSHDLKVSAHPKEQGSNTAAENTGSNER
T4 sequence (Q9P1W8 29-387): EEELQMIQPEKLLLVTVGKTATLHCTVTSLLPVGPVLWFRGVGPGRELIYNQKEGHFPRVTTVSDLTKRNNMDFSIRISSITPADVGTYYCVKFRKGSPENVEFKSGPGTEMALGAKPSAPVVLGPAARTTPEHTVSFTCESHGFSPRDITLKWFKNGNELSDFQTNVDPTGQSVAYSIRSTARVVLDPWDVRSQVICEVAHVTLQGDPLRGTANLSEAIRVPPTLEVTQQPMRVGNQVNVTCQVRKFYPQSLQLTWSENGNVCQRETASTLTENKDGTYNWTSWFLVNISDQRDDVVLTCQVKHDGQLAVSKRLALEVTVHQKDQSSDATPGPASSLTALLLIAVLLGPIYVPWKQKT
T9 sequence (O00241 30-398): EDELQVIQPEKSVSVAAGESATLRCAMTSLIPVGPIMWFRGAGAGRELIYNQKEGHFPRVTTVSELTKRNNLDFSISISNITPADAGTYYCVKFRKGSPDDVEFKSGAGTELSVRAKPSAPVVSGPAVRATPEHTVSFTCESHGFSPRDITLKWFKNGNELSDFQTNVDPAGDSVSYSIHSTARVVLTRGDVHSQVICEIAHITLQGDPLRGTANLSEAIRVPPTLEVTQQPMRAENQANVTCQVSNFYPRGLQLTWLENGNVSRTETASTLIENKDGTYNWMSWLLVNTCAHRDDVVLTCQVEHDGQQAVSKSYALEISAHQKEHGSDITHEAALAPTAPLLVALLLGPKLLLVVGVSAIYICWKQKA
T5 sequence (Q5TFQ8 30-371 limits assumed): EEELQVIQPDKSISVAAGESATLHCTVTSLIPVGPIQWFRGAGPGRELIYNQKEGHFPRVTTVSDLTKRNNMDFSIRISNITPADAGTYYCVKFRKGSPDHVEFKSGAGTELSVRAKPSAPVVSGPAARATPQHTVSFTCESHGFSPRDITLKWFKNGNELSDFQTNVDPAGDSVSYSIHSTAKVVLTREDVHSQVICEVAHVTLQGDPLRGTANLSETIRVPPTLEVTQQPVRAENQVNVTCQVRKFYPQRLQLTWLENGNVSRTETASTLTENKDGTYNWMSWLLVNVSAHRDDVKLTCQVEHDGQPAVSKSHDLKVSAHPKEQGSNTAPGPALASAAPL
T3 sequence (O00241 30-371): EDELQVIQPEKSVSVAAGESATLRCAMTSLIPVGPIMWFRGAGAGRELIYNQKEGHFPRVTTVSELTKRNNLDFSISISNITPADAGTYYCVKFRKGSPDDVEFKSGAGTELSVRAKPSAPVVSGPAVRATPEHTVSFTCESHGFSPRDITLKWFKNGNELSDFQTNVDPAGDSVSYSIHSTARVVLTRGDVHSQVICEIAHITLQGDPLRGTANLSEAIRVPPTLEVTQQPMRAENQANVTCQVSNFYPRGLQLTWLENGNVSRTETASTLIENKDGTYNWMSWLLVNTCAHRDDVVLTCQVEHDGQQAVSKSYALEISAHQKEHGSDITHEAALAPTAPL

Binder | IC50 [1] [nM] | TOP blocking (%) [1] [%] | EC50 [2] [nM] | TOP OD450 [2] [OD450] | EC50 [3] [nM] | TOP MFI [3] [MFI] | EC50 [4] [nM] | TOP OD450 [4] [OD450] | EC50 [5] [nM] | TOP MFI [5] [MFI] | IC50 [6] [nM] | TOP blocking (%) [6] [%] | SHP-1 recruitment blocking, IC50 [7] [nM] | SHP-1 recruitment blocking, TOP blocking (%) [7] [%] | binding result [8] | Kd [9] [nM] | koff [9] [s⁻¹] | kon [9] [M⁻¹ s⁻¹] | % Competition [10] [%] | % Competition [11] [%] | also measured
059c (antibody, V domains shown, also called chimeric antibody 059c) VH: QVQLQQSGPELVKPGASVKMSCKASGYTFSEYVLSWVKQRTGQGLEWIGEIYPGTITTYYNEKFKGKATLTADKSSNTAYIQLTSLTSEDSAVYFCGRFYDYDGGWFAYWGQGTLLTVSA VL: ENVLTQSPEKMAVSLGQKVTMTCSASSSVSSSDLHWYQQKSGASPKPLIHGTSNLASGVPARFSGSGSGTSYSLTISSVEAEDAATYYCQQWSGYPWTFGGGTNLEIK | 54.1 | 84.4 | 0.03 | 2.75 | 34.1 | 2860 | 0.7 | 3.35 | 1.45 | 69800 | 2.63 | 97 | 0.07 | 66.9 | no binding | 2.25 | 0.00213 | 944000 | – | – | –
hu1H9G4 (antibody, V domains shown) VH: QVQLVQSGAEVKKPGASVKVSCKASGYTFTSYWITWVKQAPGQGLEWIGDIYPGSGSTNHIEKFKSKATLTVDTSISTAYMELSRLRSDDTAVYYCATGYGSSYGYFDYWGQGTLVTVSS VL: DIQMTQSPSSLSASVGDRVTITCRASENIYSYLAWYQQKPGKAPKLLIYTAKTLAEGVPSRFSGSGSGTDFTLTISSLQPEDFATYYCQHQYGPPFTFGQGTKLELK | 5.74 | 98.2 | 0.03 | 3.22 | 0.52 | 2720 | 0.24 | 2.74 | 1.93 | 74600 | 1.91 | 97.5 | 0.1 | 59.5 | – | 3.48 | 0.00277 | 795000 | 82.6 | 14.5 | IC50 [12]: 0.44 nM; TOP blocking (%) [12]: 97.2%; EC50 [13]: 0.3 nM; TOP MFI [13]: 7140 MFI; % Competition [14]: 90.5%; EC50 [15]: 0.48 nM; TOP OD450 [15]: 1.81 OD450
042c (antibody, V domains shown, also called chimeric antibody 042c) VH: QIQLVQSGPELKKPGETVKISCRASGYTFTTYGMSWVKQAPGKGLRWMGWINTYSGVSTCADDFKGRFAFSLETSATTAYLQIHNLTNEDTATYFCARDPHSYGNSPAWFPYWGQGTLVTVSA VL: DIVMTQSQKFMSTTIRDRVSITCKASQNVGISVAWYQQKSGQSPKLLIYSASNRYTGVPDRFTGSGSGTDFTLTISNMQSEDLADYFCQQYSSYPLTFGSGTKLAIK | 4.49 | 94.6 | 0.23 | 3.23 | – | – | 0.39 | 2.69 | 1.9 | 73200 | 3.6 | 97.1 | 0.99 | 70 | no binding | 9.2 | 0.00545 | 593000 | 93.9 | 8.9 | EC50 [13]: 39.8 nM; TOP MFI [13]: 3910 MFI; % Competition [14]: 29.8%; EC50 [15]: 20.5 nM; TOP OD450 [15]: 1.22 OD450
